For four substances, Km, Vmax and sialyltransferase activity toward the acceptor (pmol/ml medium, h) (pmol/ml medium, h) results are on record in patent US6017743A, “Siaα 2,3, Galβ 1, 4Glc NAcα 2,8-sialyltransferase” (The Institute of Physical and Chemical Research, priority 1995, dated 2000).

A value given as a limit tells only on which side of the number the result lay.

For experiment [1], the target named is T1, mouse Siaα 2,3Galβ 1,4GlcNAc α 2,8-sialyltransferase O3 (ST8Sia III), protein A-fused soluble enzyme, SEQ. ID. No.3 (active domain of SEQ. ID. No.1) (Mus musculus, UniProt Q64689).
T1 construct: ID; No.3 and 4, respectively; IgM signal peptide (N); made in house; host or cells: COS-7 cells (transient transfection with pcDSA-O3; secreted into the medium, adsorbed to IgG-Sepharose)
T1 sequence (Q64689 42-380): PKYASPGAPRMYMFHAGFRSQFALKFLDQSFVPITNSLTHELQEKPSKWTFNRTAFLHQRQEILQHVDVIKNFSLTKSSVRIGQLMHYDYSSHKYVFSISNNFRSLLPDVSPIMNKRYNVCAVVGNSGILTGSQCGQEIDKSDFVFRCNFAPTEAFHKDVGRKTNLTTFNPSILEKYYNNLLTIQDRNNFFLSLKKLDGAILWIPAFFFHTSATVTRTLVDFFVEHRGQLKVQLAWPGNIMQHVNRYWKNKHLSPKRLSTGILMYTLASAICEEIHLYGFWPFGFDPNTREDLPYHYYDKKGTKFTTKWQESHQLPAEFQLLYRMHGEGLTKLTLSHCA
Description: Kinetic properties of the sialyltransferase of the present invention (sialyltransfer from CMP-[14C]NeuAc to glycolipid acceptors, HPTLC/radio image analysis). The class given is biochemical. Conditions: acceptor substrate, Table 2. An excerpt:
To facilitate functional analysis of the sialyltransferase of the present invention, expression plasmid pcDSA-O3 was constructed and transfected into COS-7 cells, and the protein A fused-protein containing an active domein of the sialyltransferase of the present invention (i.e. a soluble enzyme; hereinafter referred to as the fused protein of the present invention) was adsorbed to IgG-Sepharose in the medium and used as the enzyme source. The amino acid sequence of the fused protein and the gene encoding the fused protein are shown as SEQ. ID. No.3 and 4, respectively.
A truncated form of the sialyltransferase of the present invention (ST8Sia-III), lacking the first 39 amino acids of the open reading frame, was prepared by PCR amplification with 5'- and 3'-primers containing a XhoI site, respectively (5'-CATCTTCTCGAGTCCC AAGTACGCCAGCCCG-3' and 5'-[…]-3'). […]
The single insertion in the correct orientation was finally analyzed by restriction enzyme treatment and DNA sequencing. […]
For glycolipid acceptors, the incubation mixtures were applied on a C-18 column (Sep-Pak Vac, 100 mg; Waters, Milford, Mass., U.S.A.) which was washed with water. […] The radioactive materials in glycoproteins or glycolipids were visualized with a BAS2000 radio image analyzer (Fuji Film, Japan), and the radioactivity incorporated into acceptor glycoproteins was counted.

Experiment [2] concerns the target transferrin (bovine) (bovine) (UniProt Q29443).
Experiment [3] addresses asialo-α1-acid glycoprotein.
For experiment [4], the target named is bovine submaxillary mucin (bovine).
Experiment [5] concerns the target fetuin.
Experiment [6] addresses fetuin. The source holds these as a separate data set.

As a reminder, the Km is the concentration of substrate that gives half-maximal velocity. As for “Siaα 2,3Galβ 1,4GlcNAc β 1,4Galβ 1,4Glcβ1,1Cer [2,3-SPG]”, the Michaelis constant (Km) in experiment [1] (0.1 M sodium cacodylate pH 6.0, 37° C., CMP-[14C]NeuAc donor) is 82 µM. The Vmax in [1] is recorded as 9.2 pmol/h,ml.
Consider “human ST8Sia I (GD3 synthase) expressed by Namalwa cells (from UniProt Q92185) (enzyme)”, for which the sialyltransferase activity toward the acceptor (pmol/ml medium, h) (pmol/ml medium, h) (in the experiment with asialofetuin; with α1-acid glycoprotein; in experiment [2]; in experiment [3]; in experiment [4]; in the experiment with ovomucoid) was under 0.01 in each case. In the experiment with fetuin [5], this substance registered a sialyltransferase activity toward the acceptor (pmol/ml medium, h) (pmol/ml medium, h) of under 0.01.
In the case of “mouse ST8Sia II (STX) (from UniProt O35696) (enzyme)”, the sialyltransferase activity toward the acceptor (pmol/ml medium, h) (pmol/ml medium, h) in the experiment with asialofetuin was under 0.1; with α1-acid glycoprotein it was 7.6; in [2], 0.38; in [3], under 0.1; in experiment [4], under 0.1; in the experiment with ovomucoid, 1.3. Moreover, the sialyltransferase activity toward the acceptor (pmol/ml medium, h) (pmol/ml medium, h) with fetuin [5] came out at 8.
For “protein A-fused soluble enzyme containing an active domain of Siaα2,3Galβ1,4GlcNAc α2,8-sialyltransferase O3 (mouse ST8Sia-III)”, the sialyltransferase activity toward the acceptor (pmol/ml medium, h) (pmol/ml medium, h) in the experiment with asialofetuin is under 0.1; with α1-acid glycoprotein, 7.8; in experiment [2], 1.3; in experiment [3], under 0.1; in [4] it was under 0.1; in the experiment with ovomucoid it was 1.7. This substance gave a sialyltransferase activity toward the acceptor (pmol/ml medium, h) (pmol/ml medium, h) with fetuin [5] of 92.1. For the same substance, the Km with fetuin [6] turned out to be 20 µM.
